In article PMC8307404, “Crystal Structure-Guided Design of Bisubstrate Inhibitors and Photoluminescent Probes for Protein Kinases of the PIM Family” (Molecules, 2021):
Square brackets hold non-standard residues; d marks the D form. Peptide text beside a SMILES is read from it. * marks the point of attachment. X3 = O=C(CCCCCNCc1nc2c(sc3cc(Br)cnc32)c(=O)[nH]1)*

Experiments:
Experiment in all cases: Kinase profiling (radiometric filter-binding)
Type in all cases: biochemical
[1] = target: BRK (Homo sapiens, UniProt Q13882); conditions: 1 µM inhibitor, read-out: Residual activity, %
Outline: (§1)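 Residual kinase activity, as a percentage of the inhibitor-free control, was measured at 1 µM final compound by radiometric filter binding. Each human enzyme was run with ATP no higher than its own KM.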

[2] = target: Aurora B (Homo sapiens, UniProt Q96GD4); conditions: 1 µM inhibitor, read-out: Residual activity, %
Outline: as §1

[3] = target: CHK2 (Homo sapiens, UniProt O96017); conditions: CHK2, 1 µM inhibitor; read-out: Residual activity, %
Outline: as §1

[4] = target: JNK2 (Homo sapiens, UniProt P45984); conditions: JNK2, 1 µM inhibitor; read-out: Residual activity, %
Outline: as §1

[5] = target: T1, ULK2 (Homo sapiens, UniProt Q8IYT8); conditions: ULK2, 1 µM inhibitor; read-out: Residual activity, %
T1 sequence (Q8IYT8 1-1036): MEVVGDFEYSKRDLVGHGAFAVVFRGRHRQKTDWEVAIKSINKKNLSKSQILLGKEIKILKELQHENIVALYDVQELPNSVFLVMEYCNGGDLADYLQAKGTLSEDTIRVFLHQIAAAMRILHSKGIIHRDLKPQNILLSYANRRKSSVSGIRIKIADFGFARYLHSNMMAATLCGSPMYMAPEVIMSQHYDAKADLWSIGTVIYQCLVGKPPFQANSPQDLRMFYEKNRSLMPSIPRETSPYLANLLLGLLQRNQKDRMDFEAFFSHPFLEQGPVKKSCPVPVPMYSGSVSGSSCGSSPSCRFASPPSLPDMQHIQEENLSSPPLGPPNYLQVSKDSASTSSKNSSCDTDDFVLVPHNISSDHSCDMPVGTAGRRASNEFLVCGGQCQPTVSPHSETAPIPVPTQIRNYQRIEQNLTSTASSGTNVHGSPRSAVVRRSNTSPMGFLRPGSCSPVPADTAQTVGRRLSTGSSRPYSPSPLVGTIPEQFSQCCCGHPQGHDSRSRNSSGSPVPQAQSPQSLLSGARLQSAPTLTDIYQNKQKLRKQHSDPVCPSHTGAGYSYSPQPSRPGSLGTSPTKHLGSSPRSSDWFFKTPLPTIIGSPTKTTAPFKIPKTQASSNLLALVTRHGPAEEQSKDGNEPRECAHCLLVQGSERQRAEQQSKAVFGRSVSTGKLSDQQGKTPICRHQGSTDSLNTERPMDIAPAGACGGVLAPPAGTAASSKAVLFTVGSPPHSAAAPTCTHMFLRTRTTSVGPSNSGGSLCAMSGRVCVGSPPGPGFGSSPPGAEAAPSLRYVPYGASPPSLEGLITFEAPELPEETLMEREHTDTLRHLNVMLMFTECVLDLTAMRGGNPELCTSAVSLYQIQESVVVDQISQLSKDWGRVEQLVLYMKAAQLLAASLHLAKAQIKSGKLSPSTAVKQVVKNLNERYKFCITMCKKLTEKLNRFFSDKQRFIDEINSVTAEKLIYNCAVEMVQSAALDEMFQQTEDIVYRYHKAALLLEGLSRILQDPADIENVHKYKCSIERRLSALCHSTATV
Outline: as §1

[6] = target: T2, EPH-B3 (Homo sapiens, UniProt P54753); conditions: EPH-B3, 1 µM inhibitor; read-out: Residual activity, %
T2 sequence (P54753 34-998): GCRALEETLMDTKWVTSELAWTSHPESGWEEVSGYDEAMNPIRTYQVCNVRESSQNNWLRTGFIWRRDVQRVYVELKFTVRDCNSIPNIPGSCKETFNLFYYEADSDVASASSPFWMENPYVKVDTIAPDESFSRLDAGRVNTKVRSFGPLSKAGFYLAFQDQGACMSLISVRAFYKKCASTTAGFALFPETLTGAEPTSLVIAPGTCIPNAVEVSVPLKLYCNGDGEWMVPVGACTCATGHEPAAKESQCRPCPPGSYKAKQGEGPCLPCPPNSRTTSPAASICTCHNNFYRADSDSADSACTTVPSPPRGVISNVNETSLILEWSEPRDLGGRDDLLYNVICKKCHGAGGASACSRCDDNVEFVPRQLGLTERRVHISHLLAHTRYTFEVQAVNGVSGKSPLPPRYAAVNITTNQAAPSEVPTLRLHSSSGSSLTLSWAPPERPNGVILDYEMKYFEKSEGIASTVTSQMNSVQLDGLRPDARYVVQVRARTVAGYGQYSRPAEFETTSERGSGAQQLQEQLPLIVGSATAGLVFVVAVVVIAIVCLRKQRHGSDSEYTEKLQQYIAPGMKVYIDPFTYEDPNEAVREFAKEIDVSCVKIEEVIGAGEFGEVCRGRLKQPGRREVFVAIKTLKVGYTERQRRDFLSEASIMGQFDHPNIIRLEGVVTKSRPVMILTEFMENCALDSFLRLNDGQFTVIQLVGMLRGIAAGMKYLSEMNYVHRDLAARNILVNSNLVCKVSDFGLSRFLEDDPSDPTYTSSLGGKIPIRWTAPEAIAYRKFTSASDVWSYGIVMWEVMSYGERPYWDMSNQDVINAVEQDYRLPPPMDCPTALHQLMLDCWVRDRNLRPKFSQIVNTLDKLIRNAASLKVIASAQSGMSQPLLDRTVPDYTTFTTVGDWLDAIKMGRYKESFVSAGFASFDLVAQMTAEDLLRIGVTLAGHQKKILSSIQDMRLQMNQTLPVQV
Outline: as §1

[7] = target: RIPK2 (Homo sapiens, UniProt O43353); conditions: RIPK2, 1 µM inhibitor; read-out: Residual activity, %
Outline: as §1

[8] = target: MSK1 (Homo sapiens, UniProt O75582); conditions: MSK1, 1 µM inhibitor; read-out: Residual activity, %
Outline: as §1

Chain of MSK1 (O75582 whole entry): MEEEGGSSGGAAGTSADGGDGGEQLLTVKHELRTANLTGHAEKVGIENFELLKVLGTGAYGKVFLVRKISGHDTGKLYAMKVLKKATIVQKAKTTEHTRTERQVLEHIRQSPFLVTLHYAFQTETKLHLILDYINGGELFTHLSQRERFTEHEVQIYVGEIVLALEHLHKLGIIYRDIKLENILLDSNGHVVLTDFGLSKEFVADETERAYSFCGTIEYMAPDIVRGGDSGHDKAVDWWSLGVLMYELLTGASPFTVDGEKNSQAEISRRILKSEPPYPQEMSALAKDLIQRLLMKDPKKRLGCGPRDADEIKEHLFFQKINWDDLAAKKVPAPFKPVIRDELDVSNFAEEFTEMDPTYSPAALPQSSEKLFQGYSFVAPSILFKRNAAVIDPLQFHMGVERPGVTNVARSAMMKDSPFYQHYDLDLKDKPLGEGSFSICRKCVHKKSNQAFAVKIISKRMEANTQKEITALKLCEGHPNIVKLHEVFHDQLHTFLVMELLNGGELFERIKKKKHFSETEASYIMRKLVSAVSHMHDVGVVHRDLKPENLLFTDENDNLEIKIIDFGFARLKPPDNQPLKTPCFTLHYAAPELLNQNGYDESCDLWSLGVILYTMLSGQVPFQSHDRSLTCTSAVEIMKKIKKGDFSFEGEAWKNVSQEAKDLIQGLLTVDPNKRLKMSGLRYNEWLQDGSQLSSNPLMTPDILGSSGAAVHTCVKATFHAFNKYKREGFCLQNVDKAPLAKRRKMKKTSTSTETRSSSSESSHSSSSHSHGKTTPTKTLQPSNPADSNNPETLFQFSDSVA
Chain of BRK (Q13882 whole entry): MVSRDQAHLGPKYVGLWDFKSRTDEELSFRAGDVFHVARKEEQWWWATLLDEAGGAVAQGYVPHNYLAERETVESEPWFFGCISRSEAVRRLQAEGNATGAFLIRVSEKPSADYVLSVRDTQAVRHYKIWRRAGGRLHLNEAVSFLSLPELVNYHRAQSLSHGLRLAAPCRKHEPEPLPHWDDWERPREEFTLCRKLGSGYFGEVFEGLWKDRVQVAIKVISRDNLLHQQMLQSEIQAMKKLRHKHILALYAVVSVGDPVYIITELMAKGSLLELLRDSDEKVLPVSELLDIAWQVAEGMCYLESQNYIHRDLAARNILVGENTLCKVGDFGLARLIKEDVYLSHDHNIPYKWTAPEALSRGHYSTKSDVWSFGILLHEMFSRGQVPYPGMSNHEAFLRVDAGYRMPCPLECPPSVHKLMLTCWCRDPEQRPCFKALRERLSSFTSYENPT
Chain of JNK2 (P45984 whole entry): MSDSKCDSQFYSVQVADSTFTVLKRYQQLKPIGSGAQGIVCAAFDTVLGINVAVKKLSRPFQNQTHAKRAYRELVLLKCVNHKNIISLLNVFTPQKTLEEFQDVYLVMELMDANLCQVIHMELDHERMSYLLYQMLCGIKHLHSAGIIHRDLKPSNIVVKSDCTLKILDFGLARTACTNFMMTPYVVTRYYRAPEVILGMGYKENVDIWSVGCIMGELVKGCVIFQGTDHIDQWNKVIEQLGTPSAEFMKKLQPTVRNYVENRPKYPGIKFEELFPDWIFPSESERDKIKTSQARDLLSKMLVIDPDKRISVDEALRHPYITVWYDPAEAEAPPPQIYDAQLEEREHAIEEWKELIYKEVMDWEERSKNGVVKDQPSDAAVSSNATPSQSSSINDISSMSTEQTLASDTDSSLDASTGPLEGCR
Chain of Aurora B (Q96GD4 whole entry): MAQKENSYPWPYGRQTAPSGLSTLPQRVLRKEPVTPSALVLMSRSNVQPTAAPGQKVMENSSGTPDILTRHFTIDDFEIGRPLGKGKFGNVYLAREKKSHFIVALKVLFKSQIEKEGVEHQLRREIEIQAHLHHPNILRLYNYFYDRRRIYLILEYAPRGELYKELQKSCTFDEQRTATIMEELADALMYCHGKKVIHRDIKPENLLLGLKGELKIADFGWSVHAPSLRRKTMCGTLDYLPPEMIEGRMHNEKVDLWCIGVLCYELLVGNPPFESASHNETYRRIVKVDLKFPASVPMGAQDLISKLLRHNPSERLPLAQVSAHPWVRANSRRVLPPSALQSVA
Chain of RIPK2 (O43353 whole entry): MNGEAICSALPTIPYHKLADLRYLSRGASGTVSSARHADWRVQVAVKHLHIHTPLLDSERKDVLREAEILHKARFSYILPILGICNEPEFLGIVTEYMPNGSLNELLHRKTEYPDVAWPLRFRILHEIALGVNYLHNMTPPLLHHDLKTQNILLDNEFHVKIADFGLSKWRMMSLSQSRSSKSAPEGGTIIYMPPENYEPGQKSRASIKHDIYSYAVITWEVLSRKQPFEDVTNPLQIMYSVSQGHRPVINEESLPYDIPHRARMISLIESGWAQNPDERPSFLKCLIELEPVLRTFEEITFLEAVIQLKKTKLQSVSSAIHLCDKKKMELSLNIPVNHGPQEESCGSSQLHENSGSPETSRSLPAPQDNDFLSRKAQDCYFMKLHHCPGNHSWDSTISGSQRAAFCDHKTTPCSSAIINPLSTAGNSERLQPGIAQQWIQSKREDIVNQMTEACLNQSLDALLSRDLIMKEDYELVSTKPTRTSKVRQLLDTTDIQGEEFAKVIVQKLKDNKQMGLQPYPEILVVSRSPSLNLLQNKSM
Chain of CHK2 (O96017 whole entry): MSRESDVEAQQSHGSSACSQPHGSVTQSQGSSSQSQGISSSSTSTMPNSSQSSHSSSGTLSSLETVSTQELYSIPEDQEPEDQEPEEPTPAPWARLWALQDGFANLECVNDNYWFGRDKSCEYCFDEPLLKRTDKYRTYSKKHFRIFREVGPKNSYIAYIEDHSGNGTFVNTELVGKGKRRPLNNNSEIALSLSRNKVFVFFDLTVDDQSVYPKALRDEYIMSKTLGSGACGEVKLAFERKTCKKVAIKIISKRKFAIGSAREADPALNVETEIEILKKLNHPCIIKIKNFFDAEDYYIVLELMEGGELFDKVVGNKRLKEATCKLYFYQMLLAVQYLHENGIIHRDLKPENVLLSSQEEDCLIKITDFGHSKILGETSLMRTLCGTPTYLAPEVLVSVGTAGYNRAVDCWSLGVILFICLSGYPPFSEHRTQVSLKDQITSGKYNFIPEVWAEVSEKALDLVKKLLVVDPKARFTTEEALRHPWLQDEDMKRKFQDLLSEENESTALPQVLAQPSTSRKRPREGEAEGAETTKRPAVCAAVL

N=C(N)NCCC[C@@H](NC(=O)CCCCCNC(=O)Cn1cnc2c(I)c(I)c(I)c(I)c21)C(=O)N[C@H](CCCNC(=N)N)C(=O)N[C@H](CCCNC(=N)N)C(=O)N[C@H](CCCNC(=N)N)C(=O)N[C@H](CCCNC(=N)N)C(=O)N[C@H](CCCNC(=N)N)C(=O)N[C@H](CCCCN)C(N)=O [ARC-3125, TIBI-CH2-C(=O)-Ahx-(D-Arg)6-D-Lys-NH2]
remaining activity at 1 µM [1]: 82 ± 41%
remaining activity at 1 µM [2]: 100 ± 4%
remaining activity at 1 µM [3]: 116 ± 16%
remaining activity at 1 µM [4]: 123 ± 7%
remaining activity at 1 µM [5]: 34 ± 3%
remaining activity at 1 µM [6]: 104 ± 3%
remaining activity at 1 µM [7]: 37 ± 6%
remaining activity at 1 µM [8]: 6 ± 8%

N=C(N)NCCC[C@@H](NC(=O)CNC(=O)[C@@H](CCCNC(=N)N)NC(=O)[C@@H](CCCNC(=N)N)NC(=O)CCCCCCCNCc1nc2c(sc3cc(Br)cnc32)c(=O)[nH]1)C(=O)N[C@H](CCCCN)C(N)=O [Compound 1, BPTP-Aoc-(D-Arg)2-Gly-D-Arg-D-Lys-NH2]
remaining activity at 1 µM [1]: 126 ± 8%
remaining activity at 1 µM [2]: 102 ± 19%
remaining activity at 1 µM [3]: 107 ± 9%
remaining activity at 1 µM [4]: 107 ± 1%
remaining activity at 1 µM [5]: 115 ± 5%
remaining activity at 1 µM [6]: 107 ± 26%
remaining activity at 1 µM [7]: 62 ± 7%
remaining activity at 1 µM [8]: 106 ± 13%

N=C(N)NCCC[C@@H](NC(=O)CNC(=O)[C@@H](CCCNC(=N)N)NC(=O)[C@@H](CCCNC(=N)N)NC(=O)CCCCCCCNCc1nc2c(sc3ccc(Br)cc32)c(=O)[nH]1)C(=O)N[C@H](CCCCN)C(N)=O [Compound 2, BBTP-Aoc-(D-Arg)2-Gly-D-Arg-D-Lys-NH2]
remaining activity at 1 µM [1]: 114 ± 11%
remaining activity at 1 µM [2]: 98 ± 2%
remaining activity at 1 µM [3]: 103 ± 2%
remaining activity at 1 µM [4]: 91 ± 7%
remaining activity at 1 µM [5]: 127 ± 9%
remaining activity at 1 µM [6]: 106 ± 2%
remaining activity at 1 µM [7]: 72%
remaining activity at 1 µM [8]: 53 ± 4%

N=C(N)NCCC[C@@H](NC(=O)CCCCCNCc1nc2c(sc3cc(Br)cnc32)c(=O)[nH]1)C(=O)N[C@H](CCCNC(=N)N)C(=O)N[C@H](CCCNC(=N)N)C(=O)N[C@H](CCCNC(=N)N)C(=O)N[C@H](CCCNC(=N)N)C(=O)N[C@H](CCCNC(=N)N)C(=O)N[C@H](CCCCN)C(N)=O [ARC-3126, BPTP-Ahx-(D-Arg)6-D-Lys-NH2] (X3-[dR][dR][dR][dR][dR][dR][dK]-NH2)
remaining activity at 1 µM [1]: 81 ± 4%
remaining activity at 1 µM [2]: 114 ± 20%
remaining activity at 1 µM [3]: 76 ± 15%
remaining activity at 1 µM [4]: 38 ± 13%
remaining activity at 1 µM [5]: 104 ± 9%
remaining activity at 1 µM [6]: 94 ± 10%
remaining activity at 1 µM [7]: 99 ± 6%
remaining activity at 1 µM [8]: 29 ± 1%

N=C(N)NCCC[C@@H](NC(=O)CNC(=O)[C@@H](CCCNC(=N)N)NC(=O)[C@@H](CCCNC(=N)N)NC(=O)Cn1cc(CNCc2nc3c(sc4ccc(Br)cc43)c(=O)[nH]2)nn1)C(=O)N[C@H](CCCCN)C(N)=O [Compound 3, BBTP-Amt-(D-Arg)2-Gly-D-Arg-D-Lys-NH2]
remaining activity at 1 µM [1]: 114 ± 13%
remaining activity at 1 µM [2]: 111 ± 1%
remaining activity at 1 µM [3]: 52 ± 10%
remaining activity at 1 µM [4]: 129 ± 21%
remaining activity at 1 µM [5]: 104 ± 11%
remaining activity at 1 µM [6]: 79 ± 3%
remaining activity at 1 µM [7]: 71 ± 8%
remaining activity at 1 µM [8]: 90 ± 2%
